Numbering of substitutions follows the chain as printed. No end group written: not given here.
What was measured:
[1] = target: T1, enriched paired helical filament tau protein (ePHF) (human, phosphorylated residues of pathological tau, sites not stated); test: follow up analysis, method not stated
iPHF = iPHF (Homo sapiens (Human), UniProt P10636-8); test: Octet, antibody on biosensor tips
Experimental: Anti-human tau antibodies were assessed for affinity for iPHF by Octet (ForteBio, Menlo Park, CA) analysis. Recombinant mouse IgG antibodies were prepared with clone-specific variable domain pairs selected from those presented in Table 3 and mouse IgG1 constant domains. Candidate antibodies were immobilized on biosensor tips (ForteBio) in kinetic buffer (ForteBio). Biosensor tips were then washed before introduction of a solution of iPHF in kinetic buffer for analysis of association and dissociation with candidate antibodies. Affinity measurements (K_D) were obtained using Data Analysis HT version 11.1 and corrected for background and high-frequency noise.

[2] = target: T2, residues 57-72 of human tau (human, also: biotin, site not given here, phosphorylated residues, sites not given here); test: Pepscan biotinylated peptides, BLI or colorimetric detection
T2 peptide: EEPGSETSDAKSTPTA
Experimental: (§1) Recombinant mouse IgG antibodies were prepared with clone-specific variable domain pairs selected from those presented in Table 3 and mouse IgG1 constant domains. Epitope analysis was carried out with different anti-tau antibodies using a peptide scanning approach (e.g., see Verelst, J. et al. Front Mol Biosci. 2020 Mar. 31; 7:48). Libraries of overlapping synthetic biotinylated peptides corresponding to phosphorylated human tau (Pepscan, Lelystad, NL) were obtained and used to coat assay plate wells, each with individual library members. Recombinant mouse IgG antibodies were prepared with clone-specific variable domain pairs selected from those presented in Table 3 and mouse IgG1 constant domains. Antibody binding to peptides in each well was analyzed using colorimetric detection of peptide-antibody complexes with labeled secondary antibody or by associating biotinylated peptides with streptavidin coated biosensors in assay wells and assessing antibody binding by bio-layer interferometry (BLI)-based detection.

[3] = target: T3, residues 175-191 of human tau (human, also: biotin, site not given here, phosphorylated residues, sites not given here); test: as above
T3 peptide: TPPAPKTPPSSGEPPKS
Experimental: as §1

[4] = target: T4, residues 223-238 of human tau (human, also: biotin, site not given here, phosphorylated residues, sites not given here); test: as above
T4 peptide: PKKVAVVRTPPKSPSS
Experimental: as §1

[5] = target: T5, residues 383-400 of human tau (human, also: biotin, site not given here, phosphorylated residues, sites not given here); test: as above
T5 peptide: KAKTDHGAEIVYKSPVVS
Experimental: as §1

[6] = target: T1, enriched paired helical filament tau …; test: direct ELISA
Experimental: Variable domain nucleic acid sequences from antibodies obtained from immunizations described above were used to prepare recombinant mouse IgG antibodies. These candidate antibodies were analyzed for binding to ePHF and specificity for ePHF over wild type tau by direct ELISA.
For direct ePHF and wildtype tau ELISA, plates were first coated with ePHF or wild type tau. Antigen solutions were prepared in PBS and 50 μL were pipetted into each well. Plates were covered and incubated for one hour at 37° C. or overnight at 4° C. Plates were then washed and blocked by addition of 150 μl of blocking buffer to each well and incubated one hour at room temperature. Plates were then washed before addition of serially diluted candidate antibody samples prepared in blocking buffer. Detection of candidate antibody binding was carried out by washing plates and adding a solution of enzyme-labeled secondary antibody in blocking buffer to each well. Secondary antibody binding was detected by addition of substrate and spectrophotometric analysis of resulting reaction product.

[7] = target: T6, peptides corresponding with residues 413-430 of human tau (human, also: biotin, position not given here, phosphorylated residues, sites not given here); test: Pepscan biotinylated peptides, BLI or colorimetric detection
T6 peptide: STGSIDMVDSPQLATLAD
Experimental: as §1

B1: V0052 (antibody, V domains shown)
VH: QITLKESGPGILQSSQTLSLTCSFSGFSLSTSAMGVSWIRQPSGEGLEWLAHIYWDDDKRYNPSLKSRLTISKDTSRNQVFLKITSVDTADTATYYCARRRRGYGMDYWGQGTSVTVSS
VL: SIVMTQTPKFLLVSAGDRVTITCKASQSVSNDVAWYQQKPGQSPKLLIYYASNRCTGVPDRFTGSGYGTDFTFTISTVQAEDLAVYFCQQDYRSPLTFGAGTKLELK
[1]
  selectivity for ePHF over wild type tau: > 100 fold
iPHF
  Kd: 0.6 nM
[2]
  Kd: 14 nM
[3]
  Kd: 7.24 nM
[4]
  Kd: 2.08 nM
[5]
  Kd: 12.6 nM

B2: V0022 (antibody, V domains shown)
VH: QVQLQQPGTELVKPGSSVNLSCKASGFTFTRYWMHWVKERPGHGLEWIGNINPNNGGTDFNEKFKNKATLTVHKSSTTVFIQLSSLTSEDSAVYYCARGTGTGAMDYWGQGTSVTVSS
VL: DVVMTQTPLSLPVSLGDQASISCRSSQSLVHNNGITYLYWYLQKPGQSPKLLIYRVSNRFSGVPDRFGGSGSGTDFTLKISRVEAEDLGVYFCFQGTHVPRTFGGGTKLEIK
[6]
  EC50: 0.07 nM
[1]
  selectivity for ePHF over wild type tau: > 100 fold
iPHF
  Kd: 0.3 nM
[7]
  Kd: 0.306 nM

B3: V0023 (antibody, V domains shown)
VH: QVQLQQPGTELVKPGASVKLSCKASGYTFTIFWMHWVKQRPGHGLEWIGKINPNNGGGDYNEKFKSKATLTVDKSSTTAYLQLSSLTSEDSAVYYCARGTGTGAMDYWGQGTSVTVSS
VL: B2 VL with Q18H, N32S, Y37H, K44R, S48T, G68S, R82S, K112E
[6]
  EC50: 0.11 nM
[1]
  selectivity for ePHF over wild type tau: > 100 fold
iPHF
  Kd: 4 nM
[7]
  Kd: 0.207 nM

From patent US12709641B2, “Tau binding compounds” (VOYAGER THERAPEUTICS, INC., dated 2026)
